In paper PMC2851732 (2010):
Like-named read-outs stand apart in the source and are kept apart here. Ends that are not written are not given here. * marks the point of attachment. FITC = O=C1OC2(c3ccc(O)cc3Oc3cc(O)ccc32)c2ccc(NC(=S)*)cc21; βAla = NCCC(=O)O

Key:
[1] = biological target: T1, DV2 sE(1–395), postfusion trimer (dengue virus type 2, UniProt P12823); assay: FP
[2] = biological target: T1, DV2 sE(1–395), postfusion trimer; assay: FP; remark: listed apart in the source

Row | Binder | Kd [1] [nM] | Kd [2] [nM]
1 | AILGDTAWDFGSLGGVFTSIGKALHQVFGAIYGAA [stem peptide DV2^413–447] | 275 | –
2 | {FITC-βAla}-AWDFGSLGGVFTSIGKALHQVF [FITC-conjugated stem peptide DV2^419–440] | – | 250
3 | {FITC-βAla}-AWDFGSLGGVFTSIGKALHQVFGAIYGAA [FITC-conjugated stem peptide DV2^419–447] | – | 125
